According to article PMC2464603, “Roles of Arabidopsis WRKY3 and WRKY4 Transcription Factors in Plant Responses to Pathogens”:

B1: Pchn0 (dsDNA)
DNA 1: GGAACTTGACCTTGACCTTAGGGCTGCAGGAATTCG
DNA 2: CGAATTCCTGCAGCCCTAAGGTCAAGGTCAAGTTCC
B2: mPchn0 (dsDNA)
DNA 1: GGAACTTGAACTTGAACTTAGGGCTGCAGGAATTCG
DNA 2: CGAATTCCTGCAGCCCTAAGTTCAAGTTCAAGTTCC

Key:
WRKY4 = WRKY4 (Arabidopsis, UniProt Q9XI90 1-514); experiment: EMSA; not stated; DNA-binding assays as previously described (ref 15); settings: protein: recombinant
WRKY3 = WRKY3 (Arabidopsis, UniProt Q9ZQ70 1-513); experiment: as above; settings: protein: recombinant
Chain of WRKY3 (Q9ZQ70 whole entry): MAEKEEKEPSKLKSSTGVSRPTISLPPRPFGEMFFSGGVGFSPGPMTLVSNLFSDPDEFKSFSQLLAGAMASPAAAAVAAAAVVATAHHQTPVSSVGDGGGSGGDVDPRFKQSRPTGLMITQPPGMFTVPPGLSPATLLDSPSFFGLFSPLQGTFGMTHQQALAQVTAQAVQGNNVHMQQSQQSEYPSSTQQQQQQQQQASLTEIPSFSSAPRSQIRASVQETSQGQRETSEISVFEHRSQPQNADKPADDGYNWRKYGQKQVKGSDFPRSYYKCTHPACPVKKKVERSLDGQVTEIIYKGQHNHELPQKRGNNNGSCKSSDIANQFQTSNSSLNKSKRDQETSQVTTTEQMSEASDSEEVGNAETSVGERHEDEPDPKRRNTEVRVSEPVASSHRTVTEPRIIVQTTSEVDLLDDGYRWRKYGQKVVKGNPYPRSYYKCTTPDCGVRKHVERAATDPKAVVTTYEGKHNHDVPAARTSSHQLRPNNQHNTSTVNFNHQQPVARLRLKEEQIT

Chain of WRKY4 (Q9XI90 whole entry): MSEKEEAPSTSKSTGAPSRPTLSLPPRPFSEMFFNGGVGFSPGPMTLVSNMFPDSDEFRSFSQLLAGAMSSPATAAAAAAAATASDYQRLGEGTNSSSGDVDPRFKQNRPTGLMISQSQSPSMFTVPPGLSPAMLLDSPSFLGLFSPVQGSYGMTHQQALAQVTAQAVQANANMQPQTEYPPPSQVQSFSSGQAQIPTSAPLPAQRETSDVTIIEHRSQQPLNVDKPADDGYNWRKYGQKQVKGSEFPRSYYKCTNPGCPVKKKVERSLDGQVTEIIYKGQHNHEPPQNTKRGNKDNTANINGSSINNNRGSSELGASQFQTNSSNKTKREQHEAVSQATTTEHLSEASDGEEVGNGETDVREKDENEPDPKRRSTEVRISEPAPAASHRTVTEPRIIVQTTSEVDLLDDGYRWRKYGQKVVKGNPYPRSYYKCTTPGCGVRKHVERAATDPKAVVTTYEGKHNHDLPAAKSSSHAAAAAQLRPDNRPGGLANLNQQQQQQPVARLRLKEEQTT

| Binder | binding result (WRKY4) | binding result (WRKY3) |
| --- | --- | --- |
| B1 | binds | binds |
| B2 | – | no binding |
